According to patent publication US20190345534:
Like-named read-outs stand apart in the source and are kept apart here.

B1: Clr (Sigma) (enzyme, UniProt P00736 18-705, looked up, species assumed)
Complement C1r subcomponent: SIPIPQKLFGEVTSPLFPKPYPNNFETTTVITVPTGYRVKLVFQQFDLEPSEGCFYDYVKISADKKSLGRFCGQLGSPLGNPPGKKEFMSQGNKMLLTFHTDFSNEENGTIMFYKGFLAYYQAVDLDECASRSKSGEEDPQPQCQHLCHNYVGGYFCSCRPGYELQEDTHSCQAECSSELYTEASGYISSLEYPRSYPPDLRCNYSIRVERGLTLHLKFLEPFDIDDHQQVHCPYDQLQIYANGKNIGEFCGKQRPPDLDTSSNAVDLLFFTDESGDSRGWKLRYTTEIIKCPQPKTLDEFTIIQNLQPQYQFRDYFIATCKQGYQLIEGNQVLHSFTAVCQDDGTWHRAMPRCKIKDCGQPRNLPNGDFRYTTTMGVNTYKARIQYYCHEPYYKMQTRAGSRESEQGVYTCTAQGIWKNEQKGEKIPRCLPVCGKPVNPVEQRQRIIGGQKAKMGNFPWQVFTNIHGRGGGALLGDRWILTAAHTLYPKEHEAQSNASLDVFLGHTNVEELMKLGNHPIRRVSVHPDYRQDESYNFEGDIALLELENSVTLGPNLLPICLPDNDTFYDLGLMGYVSGFGVMEEKIAHDLRFVRLPVANPQACENWLRGKNRMDVFSQNMFCAGHPSLKQDACQGDSGGVFAVRDPNTDRWVATGIVSWGIGCSRGYGFYTKVLNYVDWIKKEMEEED
B2: murine Granzyme B (recombinant, Peprotech) (protein)
chain: IIGGHEVKPHSRPYMALLSIKDQQPEAICGFLIREDFVLTAAHCEGSIINVTLGAHNIKEQEKTQQVIPMVKCIPHPDYNPKTFSNDIMLLKLKSKAKRTRAVRPLNLPRRNVNVKPGDVCYVAGWGRMAPMGKYSNTLQEVELTVQKDRECESYFKNRYNKTNQICAGDPKTKRASFRGDSGGPLVCKKVAAGIVSYGYKDGSPPRAFTKVSSFLSWIKKTMKSS
B3: Cls (Sigma) (enzyme, UniProt P09871 16-688, looked up, species assumed)
Complement C1s subcomponent: EPTMYGEILSPNYPQAYPSEVEKSWDIEVPEGYGIHLYFTHLDIELSENCAYDSVQIISGDTEEGRLCGQRSSNNPHSPIVEEFQVPYNKLQVIFKSDFSNEERFTGFAAYYVATDINECTDFVDVPCSHFCNNFIGGYFCSCPPEYFLHDDMKNCGVNCSGDVFTALIGEIASPNYPKPYPENSRCEYQIRLEKGFQVVVTLRREDFDVEAADSAGNCLDSLVFVAGDRQFGPYCGHGFPGPLNIETKSNALDIIFQTDLTGQKKGWKLRYHGDPMPCPKEDTPNSVWEPAKAKYVFRDVVQITCLDGFEVVEGRVGATSFYSTCQSNGKWSNSKLKCQPVDCGIPESIENGKVEDPESTLFGSVIRYTCEEPYYYMENGGGGEYHCAGNGSWVNEVLGPELPKCVPVCGVPREPFEEKQRIIGGSDADIKNFPWQVFFDNPWAGGALINEYWVLTAAHVVEGNREPTMYVGSTSVQTSRLAKSKMLTPEHVFIHPGWKLLEVPEGRTNFDNDIALVRLKDPVKMGPTVSPICLPGTSSDYNLMDGDLGLISGWGRTEKRDRAVRLKAARLPVAPLRKCKEVKVEKPTADAEAYVFTPNMICAGGEKGMDSCKGDSGGAFAVQDPNDKTKFYAAGLVSWGPQCGTYGLYTRVKNYVDWIMKTMQENSTPRED
B4: mouse plasmin (HaemTech) (protein)
chain: VYLSECKTGIGNGYRGTMSRTKSGVACQKWGATFPHVPNYSPSTHPNEGLEENYCRNPDNDEQGPWCYTTDPDKRYDYCNIPECEEECMYCSGEKYEGKISKTMSGLDCQAWDSQSPHAHGYIPAKFPSKNLKMNYCRNPDGEPRPWCFTTDPTKRWEYCDIPRCTTPPPPPSPTYQCLKGRGENYRGTVSVTVSGKTCQRWSEQTPHRHNRTPENFPCKNLEENYCRNPDGETAPWCYTTDSQLRWEYCEIPSCESSASPDQSDSSVPPEEQTPVVQECYQSDGQSYRGTSSTTITGKKCQSWAAMFPHRHSKTPENFPDAGLEMNYCRNPDGDKGPWCYTTDPSVRWEYCNLKRCSETGGSVVELPTVSQEPSGPSDSETDCMYGNGKDYRGKTAVTAAGTPCQGWAAQEPHRHSIFTPQTNPRAGLEKNYCRNPDGDVNGPWCYTTNPRKLYDYCDIPLCASASSFECGKPQVEPKKCPGRVVGGCVANPHSWPWQISLRTRFTGQHFCGGTLIAPEWVLTAAHCLEKSSRPEFYKVILGAHEEYIRGLDVQEISVAKLILEPNNRDIALLKLSRPATITDKVIPACLPSPNYMVADRTICYITGWGETQGTFGAGRLKEAQLPVIENKVCNRVEYLNNRVKSTELCAGQLAGGVDSCQGDSGGPLVCFEKDKYILQGVTSWGLGCARPNKPGVYVRVSRFVDWIEREMRNN

Legend:
[1] = system: GzmB peptide substrate AIEFDSGc on PEG-coated iron oxide nanoparticles (GzmB-sensing synthetic biomarker)
[2] = molecular target: T1, GzmB peptide substrate AIEFDSGc on PEG-coated iron oxide nanoparticles (GzmB-sensing synthetic biomarker)
T1 chain: AIEFDSGC

Protein | fluorescent intensity (in vitro protease cleavage assay) [1] | fluorescent intensity (in vitro protease cleavage assay) [2] | kcat/KM [2] | rate of cleavage (initial cleavage velocity, fluorescence) [2]
B1 | Increases in fluorescent intensity were observed only in samples containing recombinant GzmB | – | – | –
B2 | – | Increases in fluorescent intensity were observed only in samples containing recombinant GzmB | Fitted kcat/KM was 1.09×10^4 M^-1s^-1 | the substrate that produced the highest rate of cleavage by recombinant GzmB
B3 | Increases in fluorescent intensity were observed only in samples containing recombinant GzmB | – | – | –
B4 | – | Increases in fluorescent intensity were observed only in samples containing recombinant GzmB | – | –
